Data as given in publication PMC5418926, “A Functional Role for the Monomethylated Gln-51 and Lys-53 Residues of the 49GGQTK53 Motif of eL42 from Human 80S Ribosomes” (The Open Biochemistry Journal, 2017).

Molecular target: human recombinant eL42-Δ(GGQTK) variant, His-tagged (human, UniProt P83881 1-106, Δ(GGQTK), residues 49-GGQTK-53 deleted)
Assay: SPR; Biacore 3000; His-tagged eL42 species immobilised by amine coupling on a CM5 chip; eRF1 or EF-3 as analyte; 25°C, HBS-EP (10 mM HEPES pH 7.4, 150 mM NaCl, 3 mM EDTA, 0.005% P20), 5 µL/min; 1:1 Langmuir fit; mean of 3 experiments
Settings: both partners purified

B1: elongation factor 3 (EF-3) from S. cerevisiae, His-tagged (natural protein, UniProt P16521 1-1044, looked up)
chain: MSDSQQSIKVLEELFQKLSVATADNRHEIASEVASFLNGNIIEHDVPEHFFGELAKGIKDKKTAANAMQAVAHIANQSNLSPSVEPYIVQLVPAICTNAGNKDKEIQSVASETLISIVNAVNPVAIKALLPHLTNAIVETNKWQEKIAILAAISAMVDAAKDQVALRMPELIPVLSETMWDTKKEVKAAATAAMTKATETVDNKDIERFIPSLIQCIADPTEVPETVHLLGATTFVAEVTPATLSIMVPLLSRGLNERETGIKRKSAVIIDNMCKLVEDPQVIAPFLGKLLPGLKSNFATIADPEAREVTLRALKTLRRVGNVGEDDAIPEVSHAGDVSTTLQVVNELLKDETVAPRFKIVVEYIAAIGADLIDERIIDQQAWFTHITPYMTIFLHEKKAKDILDEFRKRAVDNIPVGPNFDDEEDEGEDLCNCEFSLAYGAKILLNKTQLRLKRARRYGICGPNGCGKSTLMRAIANGQVDGFPTQEECRTVYVEHDIDGTHSDTSVLDFVFESGVGTKEAIKDKLIEFGFTDEMIAMPISALSGGWKMKLALARAVLRNADILLLDEPTNHLDTVNVAWLVNYLNTCGITSITISHDSVFLDNVCEYIINYEGLKLRKYKGNFTEFVKKCPAAKAYEELSNTDLEFKFPEPGYLEGVKTKQKAIVKVTNMEFQYPGTSKPQITDINFQCSLSSRIAVIGPNGAGKSTLINVLTGELLPTSGEVYTHENCRIAYIKQHAFAHIESHLDKTPSEYIQWRFQTGEDRETMDRANRQINENDAEAMNKIFKIEGTPRRIAGIHSRRKFKNTYEYECSFLLGENIGMKSERWVPMMSVDNAWIPRGELVESHSKMVAEVDMKEALASGQFRPLTRKEIEEHCSMLGLDPEIVSHSRIRGLSGGQKVKLVLAAGTWQRPHLIVLDEPTNYLDRDSLGALSKALKEFEGGVIIITHSAEFTKNLTEEVWAVKDGRMTPSGHNWVSGQGAGPRIEKKEDEEDKFDAMGNKIAGGKKKKKLSSAELRKKKKERMKKKKELGDAYVSSDEEF
notes: S. cerevisiae elongation factor 3; The expression strain was a gift of Maria Mateyak; also called eEF-3; yeast EF-3; source: E. coli TKBL40 (BL21, His-tagged eEF-3 in pET11a), purified (His GraviTrap)
- Kd: 9.2 µM
